Laboratory results: patent US20260234242A1 (HAINAN SIMCERE ZAIMING PHARMACEUTICAL, published 2026)

T1: human CDH6 on tumor cells (OVCAR3 cells, PA-1 cells) (human, UniProt P55285 54-790)
T1 sequence: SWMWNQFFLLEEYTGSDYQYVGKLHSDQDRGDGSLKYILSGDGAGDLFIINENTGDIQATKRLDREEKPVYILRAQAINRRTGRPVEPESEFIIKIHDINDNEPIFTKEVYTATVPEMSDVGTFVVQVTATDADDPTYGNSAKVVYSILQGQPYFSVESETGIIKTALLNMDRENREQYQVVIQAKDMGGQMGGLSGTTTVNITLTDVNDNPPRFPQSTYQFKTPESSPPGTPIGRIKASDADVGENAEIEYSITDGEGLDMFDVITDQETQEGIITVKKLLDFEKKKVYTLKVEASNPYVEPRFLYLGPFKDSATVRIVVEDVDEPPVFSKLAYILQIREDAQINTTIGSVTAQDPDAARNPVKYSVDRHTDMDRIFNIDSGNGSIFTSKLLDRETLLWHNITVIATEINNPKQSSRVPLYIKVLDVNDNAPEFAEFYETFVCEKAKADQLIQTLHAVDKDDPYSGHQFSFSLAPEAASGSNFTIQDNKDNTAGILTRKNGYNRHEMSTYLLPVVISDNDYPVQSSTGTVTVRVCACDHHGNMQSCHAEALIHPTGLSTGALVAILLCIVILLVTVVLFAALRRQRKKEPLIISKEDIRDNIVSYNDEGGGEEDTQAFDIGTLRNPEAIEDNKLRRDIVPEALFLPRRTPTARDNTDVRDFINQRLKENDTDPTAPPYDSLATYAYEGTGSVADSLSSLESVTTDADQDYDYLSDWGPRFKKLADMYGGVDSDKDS

T2: his-tagged human CDH6 extracellular region protein (hCDH6 ECD-his) (human, UniProt P55285 19-615)
T2 construct: also called Human CDH6-his; hCDH6-his; not shown: his tag
T2 sequence: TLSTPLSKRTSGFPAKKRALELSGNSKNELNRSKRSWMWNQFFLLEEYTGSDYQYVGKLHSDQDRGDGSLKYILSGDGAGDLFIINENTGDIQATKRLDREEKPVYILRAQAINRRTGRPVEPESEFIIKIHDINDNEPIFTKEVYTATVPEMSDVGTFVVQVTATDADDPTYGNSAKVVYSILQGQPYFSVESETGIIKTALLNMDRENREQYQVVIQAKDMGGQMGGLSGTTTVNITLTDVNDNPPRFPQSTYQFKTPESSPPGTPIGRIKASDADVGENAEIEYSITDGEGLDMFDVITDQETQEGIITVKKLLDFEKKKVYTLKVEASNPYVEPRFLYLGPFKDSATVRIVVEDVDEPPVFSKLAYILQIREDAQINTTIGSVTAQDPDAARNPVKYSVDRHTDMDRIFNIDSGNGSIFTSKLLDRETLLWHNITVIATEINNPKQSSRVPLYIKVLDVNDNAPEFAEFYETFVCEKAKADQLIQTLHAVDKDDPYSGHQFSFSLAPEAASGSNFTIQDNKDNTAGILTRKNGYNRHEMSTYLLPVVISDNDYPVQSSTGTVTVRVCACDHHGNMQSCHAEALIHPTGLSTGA

B1: CHI-CDH6-14 (antibody, human IgG1, kappa, V domains shown)
VH: QIQLQQSGPELVKPGTSVKISCKASGYTFTDNYINWVRQRPGQGLEWIGWIYPGTGNSYYNEKFKGKATLTVDTSSSTAYMQFSSLTSEDSAVYLCASSYGDSFDYWGQGTTLTVSS
VL: DIQMTQTTSSLSASLGNRVTISCRASQDIRNYLNWYQQKPDGTFKLLISYTSRLHSGVPSRFSGSGSGTDYSLTVSNLEPEDIATYYCQQYSQLPWTFGGGSRLEIKR
notes: also called CHI-hCDH6-14; CH1-CDH6-14
B2: hCDH6-1-H2L3 (antibody, V domains shown)
VH: EVQLVQSGAEVKKPGSSVKVSCKASGYTFTNYWMHWVRQAPGQGLEWMGDIDPSHSETHYTQKFKDRVTITVDKSTSTAYMELSSLRSEDTAVYYCARGDLGRFDYWGQGTTVTVSS
VL: DIQMTQSPSSLSASVGDRVTITCRASESVSIHGTHLMHWYQQKPGKPPKLLIYAASNLESGVPSRFSGSGSETDFTFTISSLQPEDIATYYCQQSFEDPWTFGGGTKVEIK
notes: Humanized
B3: CHI-CDH6-1 (antibody, human IgG1, kappa, V domains shown)
VH: QVQLQQPGAELVRPGSSVKLSCKASGYTFTNYWMHWVKQRPIEGLEWIGDIDPSHSETHYTQKFKDKATLTVDKSSSTAYMQLSSLTSEDSAVYYCARGDLGRFDYWGQGTTLTVSS
VL: DIVLTQSPASLAVSLGQRATISCRASESVSIHGTHLMHWYQQKSGQPPKLLIYAASNLESGVPARFSGSGSETDFTFNIHPVEEEDAATYFCQQSFEDPWTFGGGTKLEIKR
notes: also called CHI-hCDH6-1; CH1-CDH6-1

Legend:
[1] = molecular target: T1, human CDH6 on tumor cells (OVCAR3 …); assay: FACS, PA-1 cells
Procedure, shortened: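 Chimeric or humanized hCDH6-14 antibody dilutions were incubated with PA-1 cells (moderate CDH6 expressors; OVCAR3 as high expressors) in PBS + 2% FBS for 1 h at 4 °C. A second 1 h step at 4 °C followed. Flow-cytometric MFI was curve-fitted to give EC50.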

[2] = molecular target: T2, his-tagged human CDH6 extracellular …; assay: ELISA, coated antigen; ELISA, hCDH6 ECD-his coated at 1 µg/mL, antibody in solution; chimeric antibody run (Table 5)
Protocol: Human CDH6 protein (hCDH6 ECD-his, conventionally synthesized), monkey CDH6 protein (cynoCDH6 ECD-his, conventionally synthesized; the cynoCDH6 ECD sequence was derived from Uniprot #A0A2K5TW62 (19-615)), and murine CDH6 protein (mCDH6 ECD-his, conventionally synthesized; the mCDH6 ECD sequence was derived from Uniprot #P97326 (19-615)) were diluted with PBS to a final concentration of 1 μg/mL, and added to a 96-well ELISA plate at 100 μL/well. The plate was incubated at 4° C. overnight. The next day, the plate was washed 3 times with a plate washing solution (PBS+0.01% (v/v) Tween 20), and a blocking buffer (PBS+0.01% (v/v) Tween 20+2% (w/w) BSA) was added for blocking at room temperature for 2 h. The blocking buffer was discarded, and the plate was washed 3 times. The chimeric antibodies were diluted with 1% BSA+PBS (purchased from Cytiva, Cat. No. SH30264.01) and added to the 96-well plate at 50 μL/well. After incubation at 37° C. for 2 h, the plate was washed 3 times with a plate washing solution. […] The plate was incubated at 37° C. for 1 h and then washed 5 times with a plate washing solution. […] OD450 nm values were read using a microplate reader (Biotek). Analysis was performed by the GraphPad Prism software, data were fitted, and EC50 values were calculated. […]

[3] = molecular target: T2, his-tagged human CDH6 extracellular …; assay: ELISA, coated antigen

Binder	EC50 [1] [pM]	Max MFI [1] [MFI]	EC50 [2] [pM]	EC50 [3] [pM]	Max OD450 [3] [OD450]
B1	270	4260	44	–	–
B2	–	–	–	29	2.61
B3	–	–	–	32	2.59
